Data set [1] deals with Recombinant unspecific peroxygenase MweUPO-1 from Marasmius wettsteinii (Marasmius wettsteinii). Kind of data set: crystal structure; deglycosylated (Endo H) MweUPO-1, 11 mg/mL in 50 mM sodium citrate pH 5.6; sitting-drop vapor diffusion at 18 °C, 10-20% (v/v) PEG 4000, 0.2 M (NH4)2SO4; space group P43212, two molecules per asymmetric unit.
Substrate in data set [2]: CCn1c(=NN=c2sc3cc(S(=O)(=O)O)ccc3n2CC)sc2cc(S(=O)(=O)O)ccc21
The experiment in a line: purified protein. Conditions: 2 mM H2O2, 100 mM Britton-Robinson buffer pH 4.0 per table footnote (methods section says phosphate/citrate pH 4.0).

Substrate in data set [3]: COc1ccc(CO)cc1OC
Kind of data set: purified protein. Conditions: 2 mM H2O2; 100 mM potassium phosphate pH 5.0 per table footnote (methods section says phosphate pH 7.0).

Substrate in data set [4]: COc1cccc(OC)c1O
Kind of data set: purified protein. Conditions: 2 mM H2O2; 100 mM potassium phosphate pH 5.0 per table footnote (methods section says phosphate pH 6.0). It is filed as biochemical, Marasmius wettsteinii.

As a reminder, the stoichiometry N is a count of units in the complex or per binding partner. As to “Recombinant unspecific peroxygenase MweUPO-1 from Marasmius wettsteinii (enzyme)”, the stoichiometry N in data set [1] was determined as 2.

B1: MweUPO-1 (Marasmius wettsteinii) (protein)
chain: SAHPWKAPGPNDSRGPCPGLNTLANHGFLPRNGRNISVPMIVKAGFEGYNVQSDILILAGKVGMLTSREADTISLEDLKLHGTIEHDASLSREDVAIGDNLHFNEAIFTTLANSNPGADVYNISSAAQVQHDRLADSVARNPNVTNTDLTATIRSSESAFYLTVMSAGDPLRGEAPKKFVNVFFQEERMPIKEGWKRSTTPINLPLLGPIIDRITELSDWKPTGDNCGAIVLGPGL
By Km is commonly meant the substrate concentration at which the rate is half of its maximum. The kcat is the number of substrate molecules converted per active site and unit of time at saturation. The kcat/Km is the second-order rate constant that governs catalysis at low substrate concentration. In the case of B1, in “purified protein [2]”, the Km came out at 30 ± 3 µM, the kcat was found to be 15.5 ± 0.68 s⁻¹ and the specificity constant (kcat/Km) came to 534000 M⁻¹ s⁻¹. Moreover, in the data set “purified protein [3]”, the Km came to 260 ± 80 µM, the kcat worked out at 22.5 ± 0.73 s⁻¹ and the kcat/Km was 87600 M⁻¹ s⁻¹. For the same molecule, in the data set “purified protein [4]”, the Km is 220 ± 1 µM, the kcat turned out to be 61.6 ± 0.85 s⁻¹ and the specificity constant (kcat/Km) was 285000 M⁻¹ s⁻¹.

For the origin of these results see paper PMC11925332, “Structural Insights and Reaction Profile of a New Unspecific Peroxygenase from Marasmius wettsteinii Produced in a Tandem-Yeast Expression System” (ACS Chemical Biology, 2024).
